PMC9482650, “Quantitative fragmentomics allow affinity mapping of interactomes” (Nature Communications, 2022)

T1: LRRC7, Q96NW7
T1 sequence (Q96NW7 1440-1537, limits assumed, looked up): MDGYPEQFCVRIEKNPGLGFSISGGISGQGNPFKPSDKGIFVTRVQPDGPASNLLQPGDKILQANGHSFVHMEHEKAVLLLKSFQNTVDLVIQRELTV

T2: TX1BP3, O14907
T2 sequence (O14907 10-122, limits assumed, looked up): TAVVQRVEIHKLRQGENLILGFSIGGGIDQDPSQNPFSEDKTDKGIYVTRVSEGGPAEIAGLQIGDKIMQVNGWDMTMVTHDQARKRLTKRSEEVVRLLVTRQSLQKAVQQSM

T3: PCLO, Q9Y6V0
T3 sequence (Q9Y6V0 4491-4600, limits assumed, looked up): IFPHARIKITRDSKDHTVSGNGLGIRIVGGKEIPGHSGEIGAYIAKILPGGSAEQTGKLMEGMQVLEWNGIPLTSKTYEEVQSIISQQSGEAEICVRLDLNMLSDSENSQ

T4: NHERF3_3, Q5T2W1
T4 sequence (Q5T2W1 238-333, limits assumed, looked up): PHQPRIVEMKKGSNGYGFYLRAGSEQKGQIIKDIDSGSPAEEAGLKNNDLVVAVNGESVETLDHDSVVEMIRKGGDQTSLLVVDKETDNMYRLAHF

T5: GRIP1_7, Q9Y3R0
T5 sequence (Q9Y3R0 999-1096, limits assumed, looked up): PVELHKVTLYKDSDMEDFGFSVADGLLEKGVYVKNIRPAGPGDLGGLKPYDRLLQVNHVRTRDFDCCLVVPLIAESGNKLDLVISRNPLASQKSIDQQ

T6: RHPN1, Q8TCX5
T6 sequence (Q8TCX5 508-602, limits assumed, looked up): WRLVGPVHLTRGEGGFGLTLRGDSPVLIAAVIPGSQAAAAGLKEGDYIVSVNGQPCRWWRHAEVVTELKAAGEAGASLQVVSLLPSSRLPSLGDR

T7: SYNJ2BP, P57105
T7 sequence (P57105 8-110, limits assumed, looked up): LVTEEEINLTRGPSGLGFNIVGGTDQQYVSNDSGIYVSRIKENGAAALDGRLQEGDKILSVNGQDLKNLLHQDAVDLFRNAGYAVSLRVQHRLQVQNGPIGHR

T8: GRIP1_3, Q9Y3R0
T8 sequence (Q9Y3R0 247-346, limits assumed, looked up): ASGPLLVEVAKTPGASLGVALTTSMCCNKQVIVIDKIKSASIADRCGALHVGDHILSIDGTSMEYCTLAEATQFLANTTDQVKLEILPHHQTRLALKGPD

T9: MPP7, Q5T2T1
T9 sequence (Q5T2T1 134-230, limits assumed, looked up): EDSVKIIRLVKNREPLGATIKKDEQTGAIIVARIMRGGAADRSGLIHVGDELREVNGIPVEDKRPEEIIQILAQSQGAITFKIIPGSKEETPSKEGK

T10: NHERF3_4, Q5T2W1
T10 sequence (Q5T2W1 373-468, limits assumed, looked up): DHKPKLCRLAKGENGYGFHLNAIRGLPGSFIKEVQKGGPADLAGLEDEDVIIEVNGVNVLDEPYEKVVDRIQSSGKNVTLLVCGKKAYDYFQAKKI

T11: DLG3_1, Q92796
T11 sequence (Q92796 125-227, limits assumed, looked up): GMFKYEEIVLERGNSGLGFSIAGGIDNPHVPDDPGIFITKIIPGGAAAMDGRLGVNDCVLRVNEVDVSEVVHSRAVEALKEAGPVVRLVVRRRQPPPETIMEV

T12: SNTA1, Q13424
T12 sequence (Q13424 82-180, limits assumed, looked up): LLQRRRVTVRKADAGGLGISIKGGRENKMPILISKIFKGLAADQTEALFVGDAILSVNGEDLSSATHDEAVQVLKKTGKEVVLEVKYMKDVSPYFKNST

T13: DVL3, Q92997
T13 sequence (Q92997 244-331, limits assumed, looked up): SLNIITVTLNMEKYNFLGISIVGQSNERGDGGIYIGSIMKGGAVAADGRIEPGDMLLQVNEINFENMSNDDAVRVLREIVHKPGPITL


Columns and labels:
Assay in all cases: holdup assay
Design in all cases: key: below the threshold = too weak to quantify, mostly under pKd 3.1 to 4
Details in all cases: plain residues with an end cap or a label only (N-terminal biotin on a linker: ado-ado)
[1] = target: MAST1, Q9Y2H9
Sequence of MAST1, Q9Y2H9 (Q9Y2H9 962-1065): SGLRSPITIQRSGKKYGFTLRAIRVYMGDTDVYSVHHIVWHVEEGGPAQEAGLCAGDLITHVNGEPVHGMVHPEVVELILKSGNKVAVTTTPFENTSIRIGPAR

[2] = target: T1, LRRC7, Q96NW7
[3] = target: T2, TX1BP3, O14907
[4] = target: T3, PCLO, Q9Y6V0
[5] = target: T4, NHERF3_3, Q5T2W1
[6] = target: PDZRN4_1, Q6ZMN7
Sequence of PDZRN4_1, Q6ZMN7 (Q6ZMN7 213-318): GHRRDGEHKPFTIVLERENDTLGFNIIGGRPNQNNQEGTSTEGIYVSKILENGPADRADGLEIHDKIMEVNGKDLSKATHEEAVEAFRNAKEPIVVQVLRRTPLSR

[7] = target: GRID2IP_2, A4D2P6
Sequence of GRID2IP_2, A4D2P6 (A4D2P6 272-370): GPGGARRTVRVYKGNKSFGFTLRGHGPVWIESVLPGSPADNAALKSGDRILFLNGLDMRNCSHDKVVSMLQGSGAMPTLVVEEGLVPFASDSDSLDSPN

[8] = target: Inadl_5, Q8NI35
Sequence of Inadl_5, Q8NI35 (Q8NI35 673-780): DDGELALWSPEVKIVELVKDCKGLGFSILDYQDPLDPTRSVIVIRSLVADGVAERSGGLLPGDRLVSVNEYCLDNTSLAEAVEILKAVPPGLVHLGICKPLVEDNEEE

[9] = target: HTRA1, Q92743
Sequence of HTRA1, Q92743 (Q92743 360-477): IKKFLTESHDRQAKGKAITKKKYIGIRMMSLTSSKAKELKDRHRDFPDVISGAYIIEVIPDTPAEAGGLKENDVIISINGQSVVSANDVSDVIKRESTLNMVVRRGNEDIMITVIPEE

[10] = target: T5, GRIP1_7, Q9Y3R0
[11] = target: T6, RHPN1, Q8TCX5
[12] = target: LIMK2, P53671
Sequence of LIMK2, P53671 (P53671 143-248): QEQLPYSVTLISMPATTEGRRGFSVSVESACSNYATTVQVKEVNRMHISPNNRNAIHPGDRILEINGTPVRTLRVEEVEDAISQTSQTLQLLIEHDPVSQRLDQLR

[13] = target: DLG1_3, Q12959
Sequence of DLG1_3, Q12959 (Q12959 457-571): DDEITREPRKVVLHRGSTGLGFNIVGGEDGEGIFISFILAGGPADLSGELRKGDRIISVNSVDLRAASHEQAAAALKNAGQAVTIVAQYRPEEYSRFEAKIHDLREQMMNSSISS

[14] = target: T7, SYNJ2BP, P57105
[15] = target: T8, GRIP1_3, Q9Y3R0
[16] = target: DLG2_3, Q15700
[17] = target: T9, MPP7, Q5T2T1
[18] = target: GRIP2_7, Q9C0E4
Sequence of GRIP2_7, Q9C0E4 (Q9C0E4 934-1023): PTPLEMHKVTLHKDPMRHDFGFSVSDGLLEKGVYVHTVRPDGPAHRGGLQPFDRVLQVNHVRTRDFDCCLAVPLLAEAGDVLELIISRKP

[19] = target: T10, NHERF3_4, Q5T2W1
[20] = target: T11, DLG3_1, Q92796
[21] = target: MAGI2_4, Q86UL8
Sequence of MAGI2_4, Q86UL8 (Q86UL8 772-865): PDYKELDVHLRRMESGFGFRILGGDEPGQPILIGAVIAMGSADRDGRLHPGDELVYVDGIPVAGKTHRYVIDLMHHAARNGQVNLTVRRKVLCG

[22] = target: T12, SNTA1, Q13424
[23] = target: T13, DVL3, Q92997

Binder	pKd [1]	pKd [2]	pKd [3]	pKd [4]	pKd [5]	pKd [6]	pKd [7]	pKd [8]	pKd [9]	pKd [10]	pKd [11]	pKd [12]	pKd [13]	pKd [15]	pKd [17]	pKd [18]	pKd [19]	pKd [20]	pKd [22]	pKd [23]	other results
PAALPESTHM [SLC9A3, P48764]	4.63	below the threshold	below the threshold	below the threshold	below the threshold	below the threshold	4.31	below the threshold	below the threshold	below the threshold	below the threshold	below the threshold	below the threshold	below the threshold	below the threshold	below the threshold	3.52	below the threshold	below the threshold	below the threshold	pKd [14]: below the threshold; pKd [16]: below the threshold; pKd [21]: below the threshold
SKQFDKNAYV [CLDN10, P78369]	below the threshold	below the threshold	below the threshold	below the threshold	below the threshold	below the threshold	below the threshold	3.52	3.97	below the threshold	3.57	below the threshold	below the threshold	below the threshold	below the threshold	below the threshold	below the threshold	below the threshold	3.55	below the threshold	pKd [14]: below the threshold; pKd [16]: below the threshold; pKd [21]: below the threshold
VYEVPVETKF [SLC26A3, P40879]	5.07	below the threshold	below the threshold	below the threshold	4.16	below the threshold	below the threshold	below the threshold	below the threshold	below the threshold	4.03	below the threshold	3.6	below the threshold	below the threshold	below the threshold	4.15	below the threshold	below the threshold	below the threshold	pKd [14]: 3.57; pKd [16]: 3.74; pKd [21]: below the threshold
PSDSVGKDVF [EGLN1, Q9GZT9]	below the threshold	below the threshold	below the threshold	below the threshold	below the threshold	below the threshold	below the threshold	below the threshold	3.77	below the threshold	below the threshold	below the threshold	below the threshold	below the threshold	below the threshold	below the threshold	below the threshold	below the threshold	below the threshold	below the threshold	pKd [14]: below the threshold; pKd [16]: 3.57; pKd [21]: below the threshold
NTALVESEDL [PALLS, Q8WX93;Q8WX93-1]	4.56	below the threshold	below the threshold	below the threshold	below the threshold	below the threshold	below the threshold	below the threshold	below the threshold	below the threshold	below the threshold	below the threshold	below the threshold	below the threshold	below the threshold	below the threshold	below the threshold	below the threshold	below the threshold	below the threshold	pKd [16]: below the threshold
VKQYADVEGF [HNRNPK, P61978;P61978-2]	below the threshold	below the threshold	3.97	below the threshold	below the threshold	below the threshold	below the threshold	below the threshold	below the threshold	below the threshold	below the threshold	below the threshold	below the threshold	below the threshold	below the threshold	below the threshold	below the threshold	below the threshold	below the threshold	below the threshold	pKd [14]: below the threshold; pKd [21]: below the threshold
